Reference: publication PMC3405102, “Solution Structure of the LIM-Homeodomain Transcription Factor Complex Lhx3/Ldb1 and the Effects of a Pituitary Mutation on Key Lhx3 Interactions” (PLoS ONE, 2012)

Biological target: T1, Lhx3 LIM1+2 as it stands in the tethered complex Ldb1-Lhx3 (mouse, UniProt P50481-1 28-153)
T1 construct: Lhx3 (LIM homeobox protein 3), mouse, both LIM domains, residues 28-153; source: part of the tethered Ldb1-Lhx3 chain
T1 sequence (looked up): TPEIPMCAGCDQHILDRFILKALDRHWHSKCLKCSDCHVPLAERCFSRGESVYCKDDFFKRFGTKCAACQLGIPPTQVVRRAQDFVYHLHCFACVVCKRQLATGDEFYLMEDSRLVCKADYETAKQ
Assay: SAXS; Ldb1-Lhx3 tethered complex at 4.5 mg mL^-1 in 20 mM Na2HPO4, 40 mM NaCl, 1 mM DTT, pH 6.8, 283 K; mass from I(0), Guinier analysis, DAMMIF and BUNCH modelling
Settings: both partners purified

B1: Ldb1LID as it stands in the tethered complex Ldb1-Lhx3 (domain or fragment, mouse, UniProt P70662-3 300-339, looked up)
chain: DVMVVGEPTLMGGEFGDEDERLITRLENTQFDAANGIDDE
notes: numbers count on: isoform P70662-3; source: part of the tethered Ldb1-Lhx3 chain
binding result: binds
